In US12491259B2, “Anti-variable MUC1* antibodies and uses thereof” (Minerva Biotechnologies Corporation, priority 2022, dated 2025):

Columns and labels:
[1] = system: T47D-MUC1* breast cancer tumors; test: Breast cancer xenograft, IVIS bioluminescence; format: in vivo, NOD/SCID/GAMMA (NSG) mice; settings: from Day 6, 10 mg/kg, DAR 4.2
Protocol: (§1) FIGS. 57A-57F show bioluminescence photographs of female NOD/SCID/GAMMA (NSG) mice, implanted with 90-day estrogen pellets and then implanted on the right flank with 1M human breast cancer cells that were either T47D wild-type cells that express low to medium levels of MUC1* or T47D-MUC1* cells that had been engineered to express more MUC1*. Day 7 post tumor implantation, the animals were injected with MNC2-MMAE, DAR 3.9, at 5 mg/kg, but was increased to 10 mg/kg for the Day 14 and Day 20 injections.
as §1, with “58A-58F” for “57A-57F”, “MN20A10-MMAE,” for “MNC2-MMAE,”, “3.0,” for “3.9,”
(§2) FIGS. 63A-63H show bioluminescence photographs of female NOD/SCID/GAMMA (NSG) mice, implanted with 90-day estrogen pellets and then implanted on the right flank with 1M human breast cancer cells that were either T47D wild-type cells that express low to medium levels of MUC1* or T47D-MUC1* cells that had been engineered to express more MUC1*. […]

[2] = system: T47D-wt breast cancer tumors; test: Breast cancer xenograft, IVIS bioluminescence; format: in vivo, NOD/SCID/GAMMA (NSG) mice; settings: from Day 6, 10 mg/kg increased to 20 mg/kg, DAR 4.2
Protocol: as §1
as §1, with “58A-58F” for “57A-57F”, “MN20A10-MMAE,” for “MNC2-MMAE,”, “3.0,” for “3.9,”
as §2

B1: MNC2-Deruxtecan (conjugate)
VH: EVQLVESGGGLVKPGGSLRLSCAASGFTFSGYAMSWVRQAPGKGLEWVSTISSGGTYIYYPDSVKGRFTISRDNAKNSLYLQMNSLRAEDTAVYYCARLGGDNYYEYFDVWGKGTTVTVSS
VL: DIVLTQSPASLAVSPGQRATITCRASKSVSTSGYSYMHWYQQKPGQPPKLLIYLASNLESGVPARFSGSGSGTDFTLTINPVEANDTANYYCQHSRELPFTFGGGTKVEIKRT
tumor burden (bioluminescence) [1]: essentially eliminated by Day 26
tumor burden (bioluminescence) [2]: greatly reduced compared to the controls
